The results in this text go back to article PMC8794821, “SNX27 suppresses SARS-CoV-2 infection by inhibiting viral lysosome/late endosome entry” (Proceedings of the National Academy of Sciences of the …, 2022).

No end group written: not given here.

This test deals with PDZ domain of SNX27 (residues 40 to 135) (human, UniProt Q96L92 40-135). The experiment in a line: ITC; MicroCal iTC200, 25 °C; ACE2-PBM peptide (125 µM, 5% DMSO) in the syringe, PDZ protein (100 µM, 5% DMSO) in the cell; 20 mM Tris pH 8.0, 150 mM NaCl. Particulars: both partners purified. For orientation: Isothermal titration calorimetry measures the heat released or taken up as one component is titrated into another.

B1: ACE2-PBM peptide (-DDVQTSF-COO−) (peptide)
peptide: DDVQTSF-OH
notes: also called human ACE2-PBM; source: synthetic peptide (Beijing SciLight Biotechnology Ltd. Co.)
Usually Kd stands for the free concentration of one partner at which half of the binding sites on the other are occupied at equilibrium, for simple one-to-one binding. Read a low Kd as tighter binding. On to B1, for which the affinity, expressed as Kd, was 20 µM.
